Reference: patent US20020004485A1 (University of California, published 2002)

What was measured:
[1] = target: atypical MC receptor of Cos-7 cells; test: cell-based or functional assay
[2] = target: MC receptor endogenous to Xenopus laevis melanophores (Xenopus laevis); test: cell-based or functional assay

B1: α-melanocyte stimulating hormone (ligand, UniProt P01189 138-150, looked up)
peptide: SYSMEHFRWGKPV
[1]
  EC50 of α-MSH for cAMP production in Cos-7 cells: ~80 nM
[2]
  EC50 of α-MSH alone in frog melanophores: 0.03 nM
